From PMC4227774, “RppH-dependent pyrophosphohydrolysis of mRNAs is regulated by direct interaction with DapF in Escherichia coli” (Nucleic Acids Research, 2014) come the findings set out here.

As a reminder, the stoichiometry N is a count of units in the complex or per binding partner. By Kd is commonly meant a measure of binding affinity in units of concentration. High values mean lower affinity, low ones higher affinity.

The chains are these.
T1: His-RppH co-expressed with DapF from pDuet-RD (E. coli, UniProt P0A776 1-176)
T1 construct: RppH (NudH), RNA pyrophosphohydrolase, E. coli; source: E. coli ER2566 harboring pDuet-RD (from the pET-duet vector), in crude extract
T1 sequence (looked up): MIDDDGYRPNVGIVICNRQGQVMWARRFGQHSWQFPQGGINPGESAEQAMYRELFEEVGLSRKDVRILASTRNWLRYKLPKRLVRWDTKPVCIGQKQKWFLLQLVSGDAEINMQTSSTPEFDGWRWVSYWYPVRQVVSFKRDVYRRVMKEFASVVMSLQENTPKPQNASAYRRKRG

T2: His6-RppH (6His-tagged form of RppH, RNA pyrophosphohydrolase) (E. coli, UniProt P0A776 1-176)
T2 construct: RppH (NudH), RNA pyrophosphohydrolase, E. coli; rppH gene amplified from MG1655 genomic DNA with primers at the ATG start codon and 20 bp downstream of the TAA stop codon; also called His-RppH; His-tagged RppH
T2 sequence (looked up): T1 sequence (looked up)

T3: DapF(C73&217A) (E. coli, UniProt P0A6K1 1-274, C73&217A | C73&217A)
T3 construct: DapF, diaminopimelate epimerase, E. coli; the two catalytic cysteines C73 and C217 substituted to alanine; The methods list His-DapF(C73&217A) among the purified proteins; results and legends call it DapF(C73&217A); also called His-DapF(C73&217A); mutant DapF
T3 sequence (looked up): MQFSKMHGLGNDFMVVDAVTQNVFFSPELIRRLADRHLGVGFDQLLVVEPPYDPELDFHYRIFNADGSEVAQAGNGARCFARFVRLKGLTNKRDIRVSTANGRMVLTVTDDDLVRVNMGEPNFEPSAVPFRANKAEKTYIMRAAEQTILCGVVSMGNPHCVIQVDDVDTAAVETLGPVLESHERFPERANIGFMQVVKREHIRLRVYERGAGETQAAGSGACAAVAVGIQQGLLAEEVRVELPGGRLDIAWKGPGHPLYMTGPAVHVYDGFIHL

B1: DapF co-expressed with His-RppH from pDuet-RD (enzyme, E. coli, UniProt P0A6K1 1-274, looked up)
chain: T3 sequence (looked up) with A73C, A217C
notes: DapF, diaminopimelate epimerase, E. coli; source: E. coli ER2566 harboring pDuet-RD (from the pET-duet vector), in crude extract
B2: DapF, diaminopimelate (DAP) epimerase, purified (enzyme, E. coli, UniProt P0A6K1 1-274, looked up)
chain: T3 sequence (looked up) with A73C, A217C
notes: DapF, diaminopimelate epimerase, E. coli; The text sets 'purified DapF' (untagged) against His-DapF in the pull-downs; also called purified DapF; untagged DapF; source: purified
B3: RppH, RNA pyrophosphohydrolase, purified (enzyme, E. coli, UniProt P0A776 1-176, looked up)
chain: T1 sequence (looked up)
notes: RppH (NudH), RNA pyrophosphohydrolase, E. coli; Named only 'RppH' in gel filtration, SPR and the activity assays; The methods describe only the purification of His-RppH, so this may be the same protein as m1; also called purified RppH; NudH; source: purified

Series [1] addresses T1, His-RppH co-expressed with DapF from …. In words: pull-down; DapF and His-RppH co-expressed from pDuet-RD in E. coli ER2566; crude extract loaded onto a TALON metal affinity column; SDS-PAGE. The note with it: partners not purified.
For series [2], the target named is T2, His6-RppH (6His-tagged form of RppH, …). In words: pull-down; purified DapF mixed with varying amounts of His-RppH or the control protein His-enzyme IIA^Ntr on the metal affinity resin; band intensities on gel. The note with it: both partners purified.
For series [3], the target named is B3. In words: SEC; Superose 12 10/300 GL, 50 mM Tris-HCl pH 8.0, 100 mM NaCl, room temperature, 0.5 ml/min; 50 μg RppH, 400 μg DapF (or 100 μg DapF(C73&217A)) or both in 250 μl, incubated 10 min on ice; fractions on SDS-PAGE. The note with it: both partners purified. (In general: SEC sorts molecules by how far they enter the pores of the column.)
Series [4] concerns the molecule itself. Described as above.
For series [5], the target named is T3, DapF(C73&217A). The series is described as above. Conditions: both partners purified.
Series [6] addresses B2. Briefly: SPR; BIAcore 3000; RppH amine-coupled to a CM5 chip (0.7 ng/mm^2); DapF at 20, 50 and 70 μg/ml flowed at 10 μl/min; 10 mM HEPES pH 7.2, 150 mM NaCl, 10 mM KCl, 1 mM MgCl2, 0.5 mM EDTA; fit assumes a dimer–dimer interaction. Conditions: both partners purified. In general terms: In SPR one partner is held on a chip, and binding of the other changes the refractive index at the surface.

Residue numbers refer to the chain shown, from its start.

B1: the “stoichiometry N” value in series [1] is 1 DapF:RppH.

As for B2, the “stoichiometry N” value in series [2] is 1 DapF:RppH; in series [3], 1 DapF:RppH (2:2); in series [4], 2.

On to B3, for which the binding result in series [5] was “binds”. Moreover, the Kd in series [6] was approximately 5.2 nM.
